# Results: patent US20230406885A1, “CYCLIC PEPTIDES FOR TRAPPING INTERLEUKIN-1 BETA” (MERCK SHARP & DOHME LLC, priority 2022, published 2023)
# *1 amine or outer side, *2 acyl side, *3 side chain or, on linkers, in order; H or OH if unused. [ ]: non-standard residue; d: D form. F4bcpA = 3-[4-[(S)-2-amino-2-carboxyethyl]phenyl]bicyclo[1.1.1]pentane-1-carboxylic acid, O=C([C@H](Cc1ccc(C23CC(C(=O)[*:3])(C2)C3)cc1)N[*:1])[*:2]; 3AzaPhe4AcPip = (S)-3-(6-(4-acetylpiperazin-1-yl)pyridin-3-yl)-2-aminopropanoic acid, CC(=O)N1CCN(c2ccc(C[C@H](N[*:1])C(=O)[*:2])cn2)CC1; dDabMe3 = [(R)-3-amino-3-carboxypropyl]-trimethylazanium, C[N+](C)(C)CC[C@@H](N[*:1])C(=O)[*:2]; F4pcCCA = (1R,4s)-4-(4-((S)-2-amino-2-carboxyethyl)phenyl)cyclohexane-1-carboxylic acid; Phe(4-(trans-4-COOH-cHex)) = N[C@@H](Cc1ccc([C@H]2CC[C@H](C(=O)O)CC2)cc1)C(=O)O; Pro(trans-4-NH2) = O=C([C@@H]1C[C@@H](N[*:3])CN1[*:1])[*:2]; Trp(βS-Me,4-F) = C[C@@H](c1c[nH]c2cccc(F)c12)[C@H](N)C(=O)O; Bip(4'-COOH) = N[C@@H](Cc1ccc(-c2ccc(C(=O)O)cc2)cc1)C(=O)O; 1Nal(3S-Me) = C[C@@H](c1cccc2ccccc12)[C@H](N)C(=O)O; Ala(indazol-1-yl) = N[C@@H](Cn1ncc2ccccc21)C(=O)O; Phe(4-COOH) = N[C@@H](Cc1ccc(C(=O)O)cc1)C(=O)O; Trp(6-F) = N[C@@H](Cc1c[nH]c2cc(F)ccc12)C(=O)O; Trp(7-Me) = Cc1cccc2c(C[C@H](N)C(=O)O)c[nH]c12; h3Pal(5-CN) = N#Cc1cncc(CC[C@H](N)C(=O)O)c1; αMeNle = CCCC[C@](C)(N[*:1])C(=O)[*:2]; hTyr = N[C@@H](CCc1ccc(O)cc1)C(=O)O; hCha = N[C@@H](CCC1CCCCC1)C(=O)O; 4Pal = N[C@@H](Cc1ccncc1)C(=O)O; Cha = N[C@@H](CC1CCCCC1)C(=O)O; dDab = NCC[C@@H](N)C(=O)O; dNMeA = CN[C@H](C)C(=O)O
# B1: SEQ ID NO: 186 (Example No. 186) (peptide)
# peptide: cyclo([Bip(4'-COOH)][Trp(7-Me)][Phe(4-COOH)]G[Pro(trans-4-NH2)][Trp(βS-Me,4-F)]D[dNMeA]G[Bip(4'-COOH)]KL[dA][hTyr])
# SMILES: Cc1cccc2c(C[C@@H]3NC(=O)[C@H](Cc4ccc(-c5ccc(C(=O)O)cc5)cc4)NC(=O)[C@H](CCc4ccc(O)cc4)NC(=O)[C@@H](C)NC(=O)[C@H](CC(C)C)NC(=O)[C@H](CCCCN)NC(=O)[C@H](Cc4ccc(-c5ccc(C(=O)O)cc5)cc4)NC(=O)CNC(=O)[C@@H](C)N(C)C(=O)[C@H](CC(=O)O)NC(=O)[C@H]([C@@H](C)c4c[nH]c5cccc(F)c45)NC(=O)[C@@H]4C[C@@H](N)CN4C(=O)CNC(=O)[C@H](Cc4ccc(C(=O)O)cc4)NC3=O)c[nH]c12
# B2: SEQ ID NO: 192 (Example No. 192) (peptide)
# peptide: cyclo([Phe(4-(trans-4-COOH-cHex))][Trp(6-F)][Phe(4-COOH)]G[Pro(trans-4-NH2)][1Nal(3S-Me)]D[dNMeA]G[Bip(4'-COOH)][4Pal]G[dDab][hCha])
# SMILES: C[C@@H]1C(=O)NCC(=O)N[C@@H](Cc2ccc(-c3ccc(C(=O)O)cc3)cc2)C(=O)N[C@@H](Cc2ccncc2)C(=O)NCC(=O)N[C@H](CCN)C(=O)N[C@@H](CCC2CCCCC2)C(=O)N[C@@H](Cc2ccc([C@H]3CC[C@H](C(=O)O)CC3)cc2)C(=O)N[C@@H](Cc2c[nH]c3cc(F)ccc23)C(=O)N[C@@H](Cc2ccc(C(=O)O)cc2)C(=O)NCC(=O)N2C[C@H](N)C[C@H]2C(=O)N[C@@H]([C@@H](C)c2cccc3ccccc23)C(=O)N[C@@H](CC(=O)O)C(=O)N1C
# B3: SEQ ID NO: 193 (Example No. 193) (peptide)
# peptide: cyclo([Phe(4-(trans-4-COOH-cHex))][Trp(6-F)][Phe(4-COOH)]G[Pro(trans-4-NH2)][1Nal(3S-Me)]D[dNMeA]G[Bip(4'-COOH)][4Pal]S[dDab][hCha])
# SMILES: C[C@@H]1C(=O)NCC(=O)N[C@@H](Cc2ccc(-c3ccc(C(=O)O)cc3)cc2)C(=O)N[C@@H](Cc2ccncc2)C(=O)N[C@@H](CO)C(=O)N[C@H](CCN)C(=O)N[C@@H](CCC2CCCCC2)C(=O)N[C@@H](Cc2ccc([C@H]3CC[C@H](C(=O)O)CC3)cc2)C(=O)N[C@@H](Cc2c[nH]c3cc(F)ccc23)C(=O)N[C@@H](Cc2ccc(C(=O)O)cc2)C(=O)NCC(=O)N2C[C@H](N)C[C@H]2C(=O)N[C@@H]([C@@H](C)c2cccc3ccccc23)C(=O)N[C@@H](CC(=O)O)C(=O)N1C
# B4: SEQ ID NO: 194 (Example No. 194) (peptide)
# peptide: cyclo([Phe(4-(trans-4-COOH-cHex))][Trp(6-F)][Phe(4-COOH)]G[Pro(trans-4-NH2)][1Nal(3S-Me)]D[dNMeA]G[Bip(4'-COOH)][4Pal]S[dDabMe3][hCha])
# SMILES: C[C@@H]1C(=O)NCC(=O)N[C@@H](Cc2ccc(-c3ccc(C(=O)O)cc3)cc2)C(=O)N[C@@H](Cc2ccncc2)C(=O)N[C@@H](CO)C(=O)N[C@H](CC[N+](C)(C)C)C(=O)N[C@@H](CCC2CCCCC2)C(=O)N[C@@H](Cc2ccc([C@H]3CC[C@H](C(=O)O)CC3)cc2)C(=O)N[C@@H](Cc2c[nH]c3cc(F)ccc23)C(=O)N[C@@H](Cc2ccc(C(=O)O)cc2)C(=O)NCC(=O)N2C[C@H](N)C[C@H]2C(=O)N[C@@H]([C@@H](C)c2cccc3ccccc23)C(=O)N[C@@H](CC(=O)O)C(=O)N1C
# B5: SEQ ID NO: 190 (Example No. 190) (peptide)
# peptide: cyclo([F4bcpA]W[Phe(4-COOH)]G[Pro(trans-4-NH2)][1Nal(3S-Me)]D[dNMeA]G[Bip(4'-COOH)][Cha]G[dDab][hTyr])
# SMILES: C[C@@H]1C(=O)NCC(=O)N[C@@H](Cc2ccc(-c3ccc(C(=O)O)cc3)cc2)C(=O)N[C@@H](CC2CCCCC2)C(=O)NCC(=O)N[C@H](CCN)C(=O)N[C@@H](CCc2ccc(O)cc2)C(=O)N[C@@H](Cc2ccc(C34CC(C(=O)O)(C3)C4)cc2)C(=O)N[C@@H](Cc2c[nH]c3ccccc23)C(=O)N[C@@H](Cc2ccc(C(=O)O)cc2)C(=O)NCC(=O)N2C[C@H](N)C[C@H]2C(=O)N[C@@H]([C@@H](C)c2cccc3ccccc23)C(=O)N[C@@H](CC(=O)O)C(=O)N1C
# B6: SEQ ID NO: 187 (Example No. 187) (peptide)
# peptide: cyclo([Bip(4'-COOH)]W[Phe(4-COOH)]G[Pro(trans-4-NH2)][Trp(βS-Me,4-F)]D[dNMeA]G[Bip(4'-COOH)]KL[dK](Ac)[hTyr])
# SMILES: CC(=O)NCCCC[C@H]1NC(=O)[C@H](CC(C)C)NC(=O)[C@H](CCCCN)NC(=O)[C@H](Cc2ccc(-c3ccc(C(=O)O)cc3)cc2)NC(=O)CNC(=O)[C@@H](C)N(C)C(=O)[C@H](CC(=O)O)NC(=O)[C@H]([C@@H](C)c2c[nH]c3cccc(F)c23)NC(=O)[C@@H]2C[C@@H](N)CN2C(=O)CNC(=O)[C@H](Cc2ccc(C(=O)O)cc2)NC(=O)[C@H](Cc2c[nH]c3ccccc23)NC(=O)[C@H](Cc2ccc(-c3ccc(C(=O)O)cc3)cc2)NC(=O)[C@H](CCc2ccc(O)cc2)NC1=O
# B7: SEQ ID NO: 183 (Example No. 183) (peptide)
# peptide: cyclo([3AzaPhe4AcPip]W[Phe(4-COOH)]G[Pro(trans-4-NH2)][1Nal(3S-Me)]D[dNMeA]G[Bip(4'-COOH)]QL[dA][h3Pal(5-CN)])
# SMILES: CC(=O)N1CCN(c2ccc(C[C@@H]3NC(=O)[C@H](CCc4cncc(C#N)c4)NC(=O)[C@@H](C)NC(=O)[C@H](CC(C)C)NC(=O)[C@H](CCC(N)=O)NC(=O)[C@H](Cc4ccc(-c5ccc(C(=O)O)cc5)cc4)NC(=O)CNC(=O)[C@@H](C)N(C)C(=O)[C@H](CC(=O)O)NC(=O)[C@H]([C@@H](C)c4cccc5ccccc45)NC(=O)[C@@H]4C[C@@H](N)CN4C(=O)CNC(=O)[C@H](Cc4ccc(C(=O)O)cc4)NC(=O)[C@H](Cc4c[nH]c5ccccc45)NC3=O)cn2)CC1
# B8: SEQ ID NO: 188 (Example No. 188) (peptide)
# peptide: cyclo([F4bcpA]W[Phe(4-COOH)]G[Pro(trans-4-NH2)][1Nal(3S-Me)]D[dNMeA]G[Bip(4'-COOH)][Ala(indazol-1-yl)]G[dDab][hCha])
# SMILES: C[C@@H]1C(=O)NCC(=O)N[C@@H](Cc2ccc(-c3ccc(C(=O)O)cc3)cc2)C(=O)N[C@@H](Cn2ncc3ccccc32)C(=O)NCC(=O)N[C@H](CCN)C(=O)N[C@@H](CCC2CCCCC2)C(=O)N[C@@H](Cc2ccc(C34CC(C(=O)O)(C3)C4)cc2)C(=O)N[C@@H](Cc2c[nH]c3ccccc23)C(=O)N[C@@H](Cc2ccc(C(=O)O)cc2)C(=O)NCC(=O)N2C[C@H](N)C[C@H]2C(=O)N[C@@H]([C@@H](C)c2cccc3ccccc23)C(=O)N[C@@H](CC(=O)O)C(=O)N1C
# B9: SEQ ID NO: 196 (Example No. 196) (peptide)
# peptide: cyclo([Phe(4-(trans-4-COOH-cHex))]W[Phe(4-COOH)]G[Pro(trans-4-NH2)][1Nal(3S-Me)]D[dNMeA]G[Bip(4'-COOH)][4Pal]G[dDab][hCha])
# SMILES: C[C@@H]1C(=O)NCC(=O)N[C@@H](Cc2ccc(-c3ccc(C(=O)O)cc3)cc2)C(=O)N[C@@H](Cc2ccncc2)C(=O)NCC(=O)N[C@H](CCN)C(=O)N[C@@H](CCC2CCCCC2)C(=O)N[C@@H](Cc2ccc([C@H]3CC[C@H](C(=O)O)CC3)cc2)C(=O)N[C@@H](Cc2c[nH]c3ccccc23)C(=O)N[C@@H](Cc2ccc(C(=O)O)cc2)C(=O)NCC(=O)N2C[C@H](N)C[C@H]2C(=O)N[C@@H]([C@@H](C)c2cccc3ccccc23)C(=O)N[C@@H](CC(=O)O)C(=O)N1C
# B10: SEQ ID NO: 195 (Example No. 195) (peptide)
# peptide: cyclo([Phe(4-(trans-4-COOH-cHex))]W[Phe(4-COOH)]G[Pro(trans-4-NH2)][1Nal(3S-Me)]D[dNMeA]G[Bip(4'-COOH)][4Pal]G[dDab][αMeNle])
# SMILES: CCCC[C@]1(C)NC(=O)[C@@H](CCN)NC(=O)CNC(=O)[C@H](Cc2ccncc2)NC(=O)[C@H](Cc2ccc(-c3ccc(C(=O)O)cc3)cc2)NC(=O)CNC(=O)[C@@H](C)N(C)C(=O)[C@H](CC(=O)O)NC(=O)[C@H]([C@@H](C)c2cccc3ccccc23)NC(=O)[C@@H]2C[C@@H](N)CN2C(=O)CNC(=O)[C@H](Cc2ccc(C(=O)O)cc2)NC(=O)[C@H](Cc2c[nH]c3ccccc23)NC(=O)[C@H](Cc2ccc([C@H]3CC[C@H](C(=O)O)CC3)cc2)NC1=O
# B11: SEQ ID NO: 189 (Example No. 189) (peptide)
# peptide: cyclo([F4bcpA]W[Phe(4-COOH)]G[Pro(trans-4-NH2)][1Nal(3S-Me)]D[dNMeA]G[Bip(4'-COOH)][Cha]G[dDab][hCha])
# SMILES: C[C@@H]1C(=O)NCC(=O)N[C@@H](Cc2ccc(-c3ccc(C(=O)O)cc3)cc2)C(=O)N[C@@H](CC2CCCCC2)C(=O)NCC(=O)N[C@H](CCN)C(=O)N[C@@H](CCC2CCCCC2)C(=O)N[C@@H](Cc2ccc(C34CC(C(=O)O)(C3)C4)cc2)C(=O)N[C@@H](Cc2c[nH]c3ccccc23)C(=O)N[C@@H](Cc2ccc(C(=O)O)cc2)C(=O)NCC(=O)N2C[C@H](N)C[C@H]2C(=O)N[C@@H]([C@@H](C)c2cccc3ccccc23)C(=O)N[C@@H](CC(=O)O)C(=O)N1C
# Target: Recombinant human IL-1β (BioLegend 579404) (human, UniProt P01584 117-269)
# Experiment: cell-based or functional assay
row,MRC5 IC50 [pM],Binder
1,24,"cyclo([Bip(4'-COOH)][Trp7F][Phe(4-COOH)]G[Pro(trans-4-NH2)][Trp(βS-Me,4-F)]D[dNMeA]G[Bip(4'-COOH)]KL[dA][hTyr]) [SEQ ID NO: 185 (Example No. 185)]"
2,38,B1
3,15,B2
4,12,B3
5,15,B4
6,18,B5
7,9,B6
8,18,"cyclo([Bip(4'-COOH)][Trp6Cl][Phe(4-COOH)]G[Pro(trans-4-NH2)][Trp(βS-Me,4-F)]D[dNMeA]G[Bip(4'-COOH)]KL[dA][hTyr]) [SEQ ID NO: 184 (Example No. 184)]"
9,19,cyclo([F4pcCCA]W[Phe(4-COOH)]G[Pro(trans-4-NH2)][1Nal(3S-Me)]D[dNMeA]G[Bip(4'-COOH)][4Pal]G[dDab][hCha]) [SEQ ID NO: 191 (Example No. 191)]
10,13,B7
11,16,B8
12,30,B9
13,22,B10
14,19,B11
